Results from US20260201008A1, “SECRETIN-DERIVED GLP1R SELECTIVE AGONISTS” (GUBRA A/S, priority 2023, published 2026).
Numbered stars: 1 amine (or outer) side, 2 acyl side, 3 side chain; on linkers, the order of the positions; unused ones are H or OH. Square brackets hold non-standard residues; d marks the D form. Side chains are listed from the residue outwards. Ends that are not written are not given here. * marks the point of attachment. C20 diacid = O=C(O)CCCCCCCCCCCCCCCCCCC(=O)*; γGlu = O=C(O)[C@H](CCC(=O)[*:2])N[*:1]; AEEA = NCCOCCOCC(=O)O; Aib = CC(C)(N)C(=O)O

B1: SEQ ID NO: 40 (peptide)
peptide: H[Aib]EGTFTSDVSVLK([AEEA-AEEA-γGlu-C20 diacid])E[Aib]AAQQRFLEHLV-NH2
B2: SEQ ID NO: 27 (peptide)
peptide: H[Aib]EGTFTSDVSFLK([AEEA-AEEA-γGlu-C20 diacid])EFAA[Aib]QRFLEHLV-NH2
B3: SEQ ID NO: 30 (peptide)
peptide: H[Aib]EGTFTSDVSYLK([AEEA-AEEA-γGlu-C20 diacid])EEAATQRFLEHLV-NH2
B4: SEQ ID NO: 24 (peptide)
peptide: H[Aib]EGTFTSDVSRLK([AEEA-AEEA-γGlu-C20 diacid])EFAAQQRFLEHLV-NH2
B5: SEQ ID NO: 21 (peptide)
peptide: H[Aib]EGTFTSDVSRLK([AEEA-AEEA-γGlu-C20 diacid])ETAAQQRFLEHLV-NH2
B6: SEQ ID NO: 33 (peptide)
peptide: H[Aib]EGTFTSDVSVLK([AEEA-AEEA-γGlu-C20 diacid])ELAAQQRFLEHLV-NH2
B7: SEQ ID NO: 39 (peptide)
peptide: H[Aib]EGTFTSDVSTLK([AEEA-AEEA-γGlu-C20 diacid])EEAAQQRFLEHLV-NH2
B8: SEQ ID NO: 26 (peptide)
peptide: H[Aib]EGTFTSDVSRLK([AEEA-AEEA-γGlu-C20 diacid])ETAATQRFLEHLV-NH2
B9: SEQ ID NO: 38 (peptide)
peptide: H[Aib]EGTFTSDVSFLK([AEEA-AEEA-γGlu-C20 diacid])EEAASQRFLEHLV-NH2
B10: SEQ ID NO: 36 (peptide)
peptide: H[Aib]EGTFTSDVSELK([AEEA-AEEA-γGlu-C20 diacid])ELAAEQRFLEHLV-NH2
B11: SEQ ID NO: 201 (peptide)
peptide: H[Aib]EGTFTSDYSYLLEGAALQRFIQWLV-NH2
modifications: N-terminus assumed
SMILES: CC[C@H](C)[C@H](NC(=O)[C@H](Cc1ccccc1)NC(=O)[C@H](CCCNC(=N)N)NC(=O)[C@H](CCC(N)=O)NC(=O)[C@H](CC(C)C)NC(=O)[C@H](C)NC(=O)[C@H](C)NC(=O)CNC(=O)[C@H](CCC(=O)O)NC(=O)[C@H](CC(C)C)NC(=O)[C@H](CC(C)C)NC(=O)[C@H](Cc1ccc(O)cc1)NC(=O)[C@H](CO)NC(=O)[C@H](Cc1ccc(O)cc1)NC(=O)[C@H](CC(=O)O)NC(=O)[C@H](CO)NC(=O)[C@@H](NC(=O)[C@H](Cc1ccccc1)NC(=O)[C@@H](NC(=O)CNC(=O)[C@H](CCC(=O)O)NC(=O)C(C)(C)NC(=O)[C@@H](N)Cc1c[nH]cn1)[C@@H](C)O)[C@@H](C)O)C(=O)N[C@@H](CCC(N)=O)C(=O)N[C@@H](Cc1c[nH]c2ccccc12)C(=O)N[C@@H](CC(C)C)C(=O)N[C@H](C(N)=O)C(C)C
B12: SEQ ID NO: 23 (peptide)
peptide: H[Aib]EGTFTSDVSRLK([AEEA-AEEA-γGlu-C20 diacid])ETAAAQRFLEHLV-NH2
B13: SEQ ID NO: 22 (peptide)
peptide: H[Aib]EGTFTSDVSRLK([AEEA-AEEA-γGlu-C20 diacid])EEAAEQRFLEHLV-NH2
B14: SEQ ID NO: 29 (peptide)
peptide: H[Aib]EGTFTSDVSVLK([AEEA-AEEA-γGlu-C20 diacid])EFAAAQRFLEHLV-NH2
B15: SEQ ID NO: 35 (peptide)
peptide: H[Aib]EGTFTSDVSVLK([AEEA-AEEA-γGlu-C20 diacid])EEAA[Aib]QRFLEHLV-NH2
B16: SEQ ID NO: 3 (peptide)
peptide: H[Aib]EGTFTSDVSRLK([AEEA-AEEA-γGlu-C20 diacid])ELAAQQRFLEHLV-NH2
B17: SEQ ID NO: 25 (peptide)
peptide: H[Aib]EGTFTSDVSFLK([AEEA-AEEA-γGlu-C20 diacid])ETAA[Aib]QRFLEHLV-NH2
B18: SEQ ID NO: 32 (peptide)
peptide: H[Aib]EGTFTSDVSTLK([AEEA-AEEA-γGlu-C20 diacid])E[Aib]AA[Aib]QRFLEHLV-NH2
B19: SEQ ID NO: 28 (peptide)
peptide: H[Aib]EGTFTSDVSVLK([AEEA-AEEA-γGlu-C20 diacid])EEAAAQRFLEHLV-NH2
B20: SEQ ID NO: 37 (peptide)
peptide: H[Aib]EGTFTSDVSFLK([AEEA-AEEA-γGlu-C20 diacid])EEAA[Aib]QRFLEHLV-NH2
B21: SEQ ID NO: 4 (peptide)
peptide: H[Aib]EGTFTSDVSYLK([AEEA-AEEA-γGlu-C20 diacid])ETAATQRFLEHLV-NH2
B22: SEQ ID NO: 202 (peptide)
peptide: H[Aib]EGTFTSDYSFLLEGAALQRFIQWLV-NH2
modifications: N-terminus assumed
SMILES: CC[C@H](C)[C@H](NC(=O)[C@H](Cc1ccccc1)NC(=O)[C@H](CCCNC(=N)N)NC(=O)[C@H](CCC(N)=O)NC(=O)[C@H](CC(C)C)NC(=O)[C@H](C)NC(=O)[C@H](C)NC(=O)CNC(=O)[C@H](CCC(=O)O)NC(=O)[C@H](CC(C)C)NC(=O)[C@H](CC(C)C)NC(=O)[C@H](Cc1ccccc1)NC(=O)[C@H](CO)NC(=O)[C@H](Cc1ccc(O)cc1)NC(=O)[C@H](CC(=O)O)NC(=O)[C@H](CO)NC(=O)[C@@H](NC(=O)[C@H](Cc1ccccc1)NC(=O)[C@@H](NC(=O)CNC(=O)[C@H](CCC(=O)O)NC(=O)C(C)(C)NC(=O)[C@@H](N)Cc1c[nH]cn1)[C@@H](C)O)[C@@H](C)O)C(=O)N[C@@H](CCC(N)=O)C(=O)N[C@@H](Cc1c[nH]c2ccccc12)C(=O)N[C@@H](CC(C)C)C(=O)N[C@H](C(N)=O)C(C)C
B23: SEQ ID NO: 31 (peptide)
peptide: H[Aib]EGTFTSDVSELK([AEEA-AEEA-γGlu-C20 diacid])EFAAEQRFLEHLV-NH2
B24: SEQ ID NO: 34 (peptide)
peptide: H[Aib]EGTFTSDVSRLK([AEEA-AEEA-γGlu-C20 diacid])ETAAEQRFLEHLV-NH2

Columns and labels:
[1] = target: human GLP-1 receptor (hGLP1R) (human, UniProt P43220 24-463); experiment: cell-based or functional assay
[2] = target: human secretin receptor (hSCTR) (human, UniProt P47872 23-440); experiment: cell-based or functional assay
Chain of human secretin receptor (hSCTR) (P47872 23-440): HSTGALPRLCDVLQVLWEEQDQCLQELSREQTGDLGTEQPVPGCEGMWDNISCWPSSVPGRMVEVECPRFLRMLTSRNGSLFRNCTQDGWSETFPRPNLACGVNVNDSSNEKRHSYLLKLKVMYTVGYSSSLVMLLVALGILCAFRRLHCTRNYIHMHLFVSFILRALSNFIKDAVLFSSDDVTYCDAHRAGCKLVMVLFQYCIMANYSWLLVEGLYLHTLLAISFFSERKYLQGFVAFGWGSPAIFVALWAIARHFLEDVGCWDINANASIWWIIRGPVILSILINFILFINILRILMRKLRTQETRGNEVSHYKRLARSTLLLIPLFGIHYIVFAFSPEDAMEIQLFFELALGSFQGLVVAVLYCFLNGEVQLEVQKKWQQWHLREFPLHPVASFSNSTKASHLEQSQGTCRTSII

Binder | pEC50 hGLPR1 [1] | pEC50 hSCTR [2]
B1 | 10.7 -log M | 6.4 -log M
B2 | 10 -log M | 5.5 -log M
B3 | 10.9 -log M | 6.6 -log M
B4 | 10.3 -log M | 6.8 -log M
B5 | 10.9 -log M | 6.7 -log M
B6 | 10.2 -log M | 6.5 -log M
B7 | 10.8 -log M | 6.5 -log M
B8 | 10.9 -log M | 7.2 -log M
B9 | 10.5 -log M | 6 -log M
B10 | 10.5 -log M | 6.5 -log M
B11 | 10.9 -log M | 7.9 -log M
B12 | 10.7 -log M | 6.8 -log M
B13 | 10.7 -log M | 6.4 -log M
B14 | 10 -log M | 6.1 -log M
B15 | 10.8 -log M | 6.1 -log M
B16 | 10.8 -log M | 7.1 -log M
B17 | 9 -log M | 5.1 -log M
B18 | 10.6 -log M | 6.2 -log M
B19 | 10.7 -log M | 5.9 -log M
B20 | 10.9 -log M | 5.7 -log M
B21 | 11.1 -log M | 7 -log M
B22 | 10.4 -log M | 7.4 -log M
B23 | 10.4 -log M | 5.2 -log M
B24 | 10.6 -log M | 6.4 -log M
